The values that follow come from paper PMC8184850, “Cryo-EM structure of TFIIH/Rad4–Rad23–Rad33 in damaged DNA opening in nucleotide excision repair” (Nature Communications, 2021).

The experiment concerns the target T1, 10-subunit holoTFIIH (coreTFIIH with TFIIK: Kin28–Ccl1–Tfb3) (Saccharomyces cerevisiae | yeast, UniProt Q00578 1-843; P06839 1-778; P32776 1-642; Q02939 1-513; Q04673 1-461; Q12004 …).
T1 construct: Ssl2 (XPB homologue), subunit of yeast TFIIH; Rad3 (XPD homologue), subunit of yeast TFIIH; Tfb1 (p62 homologue), subunit of yeast TFIIH; Tfb2 (p52 homologue), subunit of yeast TFIIH; Ssl1 (p44 homologue), subunit of yeast TFIIH; Tfb4 (p34 homologue), subunit of yeast TFIIH; Tfb5 (p8 homologue), subunit of yeast TFIIH; Kin28, kinase subunit of yeast TFIIK; Ccl1, cyclin subunit of yeast TFIIK; …
The experiment in a line: co-sedimentation; 10–40% glycerol gradient (20 mM HEPES, 150 mM potassium acetate, 2 mM magnesium acetate, 4 mM DTT, 2 mM ATP or AMP-PNP), 52,000 rpm 6 h 35 min, 4 °C; Rad4–Rad23–Rad33 pre-assembled on −24*/+24 AAF-DNA, then added to TFIIH; fractions by SDS-PAGE. Particulars: both partners purified.

B1: Rad4–Rad23–Rad33 complex (complex, yeast)
chain 1: MNEDLPKEYFELIRKALNEKEAEKAPLSRRRRVRRKNQPLPDAKKKFKTGLNELPRESVVTVNLDSSDDGVVTVPTDDSVEEIQSSEEDYDSEEFEDVTDGNEVAGVEDISVEIKPSSKRNSDARRTSRNVCSNEERKRRKYFHMLYLVCLMVHGFIRNEWINSKRLSRKLSNLVPEKVFELLHPQKDEELPLRSTRKLLDGLKKCMELWQKHWKITKKYDNVGLYMRTWKEIEMSANNKRKFKTLKRSDFLRAVSKGHGDPDISVQGFVAMLRACNVNARLIMSCQPPDFTNMKIDTSLNGNNAYKDMVKYPIFWCEVWDKFSKKWITVDPVNLKTIEQVRLHSKLAPKGVACCERNMLRYVIAYDRKYGCRDVTRRYAQWMNSKVRKRRITKDDFGEKWFRKVITALHHRKRTKIDDYEDQYFFQRDESEGIPDSVQDLKNHPYYVLEQDIKQTQIVKPGCKECGYLKVHGKVGKVLKVYAKRDIADLKSARQWYMNGRILKTGSRCKKVIKRTVGRPKGEAEEEDERLYSFEDTELYIPPLASASGEITKNTFGNIEVFAPTMIPGNCCLVENPVAIKAARFLGVEFAPAVTSFKFERGSTVKPVLSGIVVAKWLREAIETAIDGIEFIQEDDNRKEHLLGALESWNTLLLKLRIRSKLNSTYGKIAEEEPNVTKEQNIADNHDNTETFMGGGFLPGIANHEARPYSEPSEPEDSLDYVSVDKAEESATDDDVGEDYSDFMKELEMSEESD
chain 2: MVSLTFKNFKKEKVPLDLEPSNTILETKTKLAQSISCEESQIKLIYSGKVLQDSKTVSECGLKDGDQVVFMVSQKKSTKTKVTEPPIAPESATTPGRENSTEASPSTDASAAPAATAPEGSQPQEEQTATTERTESASTPGFVVGTERNETIERIMEMGYQREEVERALRAAFNNPDRAVEYLLMGIPENLRQPEPQQQTAAAAEQPSTAATTAEQPAEDDLFAQAAQGGNASSGALGTTGGATDAAQGGPPGSIGLTVEDLLSLRQVVSGNPEALAPLLENISARYPQLREHIMANPEVFVSMLLEAVGDNMQDVMEGADDMVEGEDIEVTGEAAAAGLGQGEGEGSFQVDYTPEDDQAISRLCELGFERDLVIQVYFACDKNEEAAANILFSDHAD
chain 3: MSKSTNVSYERVELFENPKVPIEVEDEILEKYAESSLDHDMTVNELPRFFKDLQLEPTIWKLVRNEDVIIEGTDVIDFTKLVRCTCQLLILMNNLTVIDDLWSMLIRNCGRDVDFPQVALRDHVLSVKDLQKISNLIGADQSSGTIEMISCATDGKRLFMTYLDFGCVLGKLGYLKM
notes: Rad4 (XPC homologue), yeast; Rad23 (RAD23B homologue), yeast; Rad33 (CETN2 homologue), yeast; plasmid pETDuet-RAD33; also called Rad4–23–33; yeast homologue of XPC–RAD23B–CETN2; copies: + +
As for B1, the binding result is on record as “binds”.
